How the values were obtained:
[1] = molecular target: T1, B-RCAL (BÜHLMANN recombinant calprotectin; His6-linker-S100A9-linker-S100A8); assay: fluorescence polarisation; details: chain shown with the change, in the presence of calcium ions, three independent measurements
T1 chain: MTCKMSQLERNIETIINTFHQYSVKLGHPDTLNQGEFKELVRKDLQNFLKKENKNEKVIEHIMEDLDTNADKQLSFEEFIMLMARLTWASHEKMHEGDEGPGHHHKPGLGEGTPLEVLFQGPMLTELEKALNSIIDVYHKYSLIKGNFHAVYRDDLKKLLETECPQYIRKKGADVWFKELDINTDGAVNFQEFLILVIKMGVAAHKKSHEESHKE

[2] = molecular target: T2, B-RCAL (BÜHLMANN recombinant calprotectin; His6-linker-S100A9-linker-S100A8) (human); assay: FP; details: modification not given
T2 chain: T1 chain

| Binder | Kd [2] [nM] | also measured |
| --- | --- | --- |
| RSPESVAFPMFQCHWYCG [peptide 3 isomer 1 (dumbbell shaped, double-bridged) C2S; C5S] |  | Kd ([1]; Cys3-Cys4 chemically bridged): 17.9 nM |
| RSPESVAFPMFQSHAYSG [W15A] | 24 |  |
| RCPECVAFPMFQSHWYSG [peptide 3 isomer 1 (dumbbell shaped, double-bridged) C13S; C17S] |  | Kd ([1]; Cys1-Cys2 chemically bridged): 16.9 nM |
| RSPESVAFAMFQSHWYSG [P9A] | 30 |  |
| RSPESVAFPMFQSHWYSA [G18A] | 31 |  |
| RSPASVAFPMFQSHWYSG [E4A] | 26 |  |

Reference: article PMC10192418, “High-affinity peptides developed against calprotectin and their application as synthetic ligands in diagnostic assays” (Nature Communications, 2023)
